Experimental data: patent publication US20100261777, “Inhibiton of metallo-beta-lactamase by double-stranded dna” (published 2010)

Key:
[1] = molecular target: T1, metallo-beta-lactamase (class B) 5/B/6 (Bacillus cereus) (UniProt P14488); test: inhibition; details: for IC50: cephalosporin C 4 mM; for IC50 / Ki: MOPS pH 7.0, 30 C; for Ki: noncompetitive
T1 sequence: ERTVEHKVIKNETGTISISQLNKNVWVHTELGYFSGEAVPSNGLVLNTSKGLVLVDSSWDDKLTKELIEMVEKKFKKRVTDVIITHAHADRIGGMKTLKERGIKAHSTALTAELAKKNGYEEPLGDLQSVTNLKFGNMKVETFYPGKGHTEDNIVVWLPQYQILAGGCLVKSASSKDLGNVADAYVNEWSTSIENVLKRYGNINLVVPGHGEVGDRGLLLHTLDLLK

[2] = molecular target: T2, metallo-beta-lactamase (class B) 5/B/6 (Bacillus cereus, UniProt P14488 P14488:30-256); test: inhibition; single strand control; details: tags: strain 5/B/6; desalted enzyme used for SELEX
T2 sequence: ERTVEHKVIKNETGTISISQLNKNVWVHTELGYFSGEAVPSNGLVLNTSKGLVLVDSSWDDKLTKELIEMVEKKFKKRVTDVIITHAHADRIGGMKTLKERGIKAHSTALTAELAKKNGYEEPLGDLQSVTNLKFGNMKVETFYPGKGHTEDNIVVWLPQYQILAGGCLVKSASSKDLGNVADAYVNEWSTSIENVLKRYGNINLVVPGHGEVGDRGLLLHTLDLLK

carboxypeptidase A = molecular target: T3, carboxypeptidase A (Bos taurus, UniProt P00730 P00730:111-419); test: inhibition; 10% LiCl, 30 C, hippuryl-L-phenylalanine 1 mM; details: tags: bovine, zinc-dependent
T3 sequence: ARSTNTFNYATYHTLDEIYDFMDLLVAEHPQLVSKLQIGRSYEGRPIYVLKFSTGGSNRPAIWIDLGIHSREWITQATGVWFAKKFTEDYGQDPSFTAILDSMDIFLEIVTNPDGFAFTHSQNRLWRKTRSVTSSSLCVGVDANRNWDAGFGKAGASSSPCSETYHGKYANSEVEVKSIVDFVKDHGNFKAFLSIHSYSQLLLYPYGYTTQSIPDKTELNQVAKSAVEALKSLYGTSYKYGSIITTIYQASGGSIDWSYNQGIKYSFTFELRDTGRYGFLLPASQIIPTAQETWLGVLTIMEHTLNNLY
Method: Bovine Carboxypeptidase A Assay. The assay used for the bovine carboxypeptidase A is based on the method developed by Folk and Schirmer (1963). The rate of hydrolysis of hippuryl-L-phenylalanine is determined by monitoring the increase in absorbance at 254 nm (25° C., pH=7.5). The enzyme was dissolved in 10% lithium chloride to a concentration of 1-3 units per mL. Hippuryl-L-phenylalanine (1 mM) was dissolved in 0.05 M Tris HCl, pH=7.5 with 0.5 M sodium chloride. In a 1 cm cuvette, 1.0 mL of substrate was added and incubated in the spectraphotometer at 25° C. for 3-4 minutes to reach temperature equilibrium and establish a blank rate. Fifty μL of diluted enzyme was preincubated for 15 minutes at 25° C. with or without the inhibitor and was then added to record the increase in absorbance at 254 nm.
At 25 times the IC₅₀ value (275 nM) for the metallo-β-lactamase no inhibition of the against B. cereus 569/H/9 β-lactamase I was detected (data not shown) Additionally a bovine carboxypeptidase A (Zn²⁺dependent enzyme) assay was performed to test for Zn²⁺ specificity. […] The enzyme was incubated in the buffer (10% LiC1) for 15 minutes at 30° C. The concentration of the substrate (Hippuryl-L-phenylalanine) is 1 mM.

In the case of “ATGATCCGGTGCTGT (double strand) [ds 15-mer]”, the IC50 [1] is reported as 21 nM and the Ki ([1]; KI' 76.5 nM) is reported as 103 nM.

Molecule “ATGATCCGGTGCTGTATGTTCCTACATGA (double strand) [ds 29-mer]” has an IC50 ([1]; no added Zn2+) of 14 nM and a Ki ([1]; KI' 9.1 nM, no added Zn2+) of 11 nM.

“CGCGAGCTCCGCGCGNNNNNNNNNNNNNNNNNNNNNNNNNNNNNNCGCGCGCATATGGCGC (double strand) [round 8 SELEX pool (30 nt random insert)]” was tested, and the activity ([1]; preliminary, pool after round 8, DNA quantitation approximate) was 25 % inhibition.

“ATGTTCCTACATGA (double strand) [ds 14-mer]” showed an IC50 [1] of 11 nM and a Ki ([1]; KI' 13 nM) of 13 nM.

ATGATCCGGTGCTGT (ssDNA) [ss 15-mer top strand] showed an IC50 [2] of 150 nM.

ACAGCACCGGATCAT (ssDNA) [ss 15-mer complementary strand] showed an IC50 [2] of 750 nM.

B1: ds 14-mer (dsDNA)
DNA 1: ATGTTCCTACATGA
DNA 2: TCATGTAGGAACAT
Molecule B1 has an IC50 (carboxypeptidase A) of 100 nM.
